US20170096485A1 (Hoffmann-La Roche, published 2017)
Where two headings read alike, the source gives them in different places.

How the values were obtained:
cynomolgus mesothelin = molecular target: T1, cynomolgus mesothelin (cynomolgus); test: flow cytometry on CHO cells transiently transfected to express cynomolgus MSLN
T1 construct: whole, on cells; also called cynomolgus MSLN

human mesothelin [1] = molecular target: T2, human mesothelin (human, UniProt Q13421 296-580); test: cell-based or functional assay
human mesothelin [2] = molecular target: T2, human mesothelin; test: cell-based or functional assay; remark: listed apart in the source
human mesothelin [3] = molecular target: T2, human mesothelin; test: cell-based or functional assay; remark: listed apart in the source
human mesothelin [4] = molecular target: T2, human mesothelin; test: flow cytometry on CHO cells transiently transfected to express human MSLN
human mesothelin [5] = molecular target: T2, human mesothelin; test: cell-based or functional assay; remark: listed apart in the source
human mesothelin [6] = molecular target: T2, human mesothelin; test: cell-based or functional assay; remark: listed apart in the source
human mesothelin [7] = molecular target: T2, human mesothelin; test: flow cytometry on MSLN-expressing AsPC-1 cells, 3.8 pM-300 nM, fit with GraphPad Prism6
Experimental: (§1) Briefly, Jurkat suspension cells were harvested, counted and checked for viability. Adherent AsPC-1 cells were harvested using Cell Dissociation Buffer (Gibco, #13151014), counted, checked for viability, and re-suspended at 0.9×10⁶ cells/ml in FACS buffer (100 μl PBS 0.1% BSA). […] Cells were re-incubated for further 30 min at 4° C. with the 1:100 pre-diluted AlexaFluor 647—F(ab′)₂ Fragment Goat Anti-Human IgG, Fey fragment specific secondary antibody (Jackson Immuno Research Lab, […] #109-096-008) and thereafter washed twice with cold PBS 0.1% BSA.
(§2) The stained cells were re-suspended in 100 μl 2% paraformaldehyde-containing FACS Buffer and incubated for 30 min at room temperature to fix the staining. Finally cells were centrifuged for 4 min at 350×g and 4° C., the supernatants were discarded and the cell pellets re-suspended in 200 μl FACS Buffer. Staining was analyzed by FACS using a FACS Canto II (Software FACS Diva). Binding curves and EC50 values were obtained using GraphPadPrism6 (FIG. 8A, binding to Jurkat cells, FIG. 8B binding to AsPC-1 cells).

human mesothelin [8] = molecular target: T2, human mesothelin; test: cell-based or functional assay; remark: listed apart in the source
human CD3 = molecular target: T3, human CD3 (human, UniProt P07766 23-207); test: flow cytometry on Jurkat cells, 3.8 pM-300 nM
T3 construct: also called CD3 epsilon
Experimental: as §1, §2

human mesothelin [9] = molecular target: T2, human mesothelin; test: cell-based or functional assay; remark: listed apart in the source

T2 sequence (Q13421 296-588): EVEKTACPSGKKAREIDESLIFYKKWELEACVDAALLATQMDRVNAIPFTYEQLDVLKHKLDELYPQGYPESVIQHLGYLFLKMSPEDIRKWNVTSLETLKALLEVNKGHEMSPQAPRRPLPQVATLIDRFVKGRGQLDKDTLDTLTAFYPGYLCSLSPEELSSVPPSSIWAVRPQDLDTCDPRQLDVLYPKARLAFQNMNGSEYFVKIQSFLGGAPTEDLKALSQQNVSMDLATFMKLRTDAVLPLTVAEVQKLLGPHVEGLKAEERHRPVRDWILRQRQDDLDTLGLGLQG
T3 sequence (P07766 23-207 limits assumed): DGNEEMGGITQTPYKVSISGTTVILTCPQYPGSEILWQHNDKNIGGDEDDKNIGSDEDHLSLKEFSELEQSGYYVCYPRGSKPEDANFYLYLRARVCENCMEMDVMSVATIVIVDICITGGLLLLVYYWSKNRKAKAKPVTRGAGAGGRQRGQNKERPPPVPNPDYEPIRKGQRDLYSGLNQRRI

B1: MSLN TCB molecule A: '2+1 IgG CrossFab, inverted' with charge modifications (VH/VL exchange in CD3 binder, charge modification in mesothelin binders) (bispecific antibody)
heavy 1: QVQLVQSGAEVKKPGASVKVSCKASGYSFTGYTMNWVRQAPGQGLEWMGLITPYNGASSYNQKFRGKATMTVDTSTSTVYMELSSLRSEDTAVYYCARGGYDGRGFDYWGQGTLVTVSSASTKGPSVFPLAPSSKSTSGGTAALGCLVEDYFPEPVTVSWNSGALTSGVHTFPAVLQSSGLYSLSSVVTVPSSSLGTQTYICNVNHKPSNTKVDEKVEPKSCDKTHTCPPCPAPEAAGGPSVFLFPPKPKDTLMISRTPEVTCVVVDVSHEDPEVKFNWYVDGVEVHNAKTKPREEQYNSTYRVVSVLTVLHQDWLNGKEYKCKVSNKALGAPIEKTISKAKGQPREPQVCTLPPSRDELTKNQVSLSCAVKGFYPSDIAVEWESNGQPENNYKTTPPVLDSDGSFFLVSKLTVDKSRWQQGNVFSCSVMHEALHNHYTQKSLSLSP
heavy 2: not shown
light 1: EVQLLESGGGLVQPGGSLRLSCAASGFTFSTYAMNWVRQAPGKGLEWVSRIRSKYNNYATYYADSVKGRFTISRDDSKNTLYLQMNSLRAEDTAVYYCVRHGNFGNSYVSWFAYWGQGTLVTVSSASVAAPSVFIFPPSDEQLKSGTASVVCLLNNFYPREAKVQWKVDNALQSGNSQESVTEQDSKDSTYSLSSTLTLSKADYEKHKVYACEVTHQGLSSPVTKSFNRGEC
light 2: DIQMTQSPSSLSASVGDRVTITCSASSSVSYMHWYQQKSGKAPKLLIYDTSKLASGVPSRFSGSGSGTDFTLTISSLQPEDFATYYCQQWSKHPLTFGQGTKLEIKRTVAAPSVFIFPPSDRKLKSGTASVVCLLNNFYPREAKVQWKVDNALQSGNSQESVTEQDSKDSTYSLSSTLTLSKADYEKHKVYACEVTHQGLSSPVTKSFNRGEC
EC50 (cynomolgus mesothelin): 5500 pM
EC50 of T-cell mediated lysis of AsPC-1 cells, 48 h (LDH release) (human mesothelin [1]): 76.2 pM
EC50 of T-cell mediated lysis of BxPC-3 cells, 48 h (LDH release) (human mesothelin [1]): 88.1 pM
EC50 of T-cell mediated lysis of NCI-H596 cells, 24 h (LDH release) (human mesothelin [1]): 25.1 pM
EC50 of T-cell mediated lysis of NCI-H596 cells, 48 h (LDH release) (human mesothelin [1]): 97.1 pM
EC50 of CD69 up-regulation on CD4 T cells (% CD4+CD69+), AsPC-1 target cells (FACS) (human mesothelin [2]): 513 pM
EC50 of CD69 up-regulation on CD4 T cells (% CD4+CD69+), BxPC-3 target cells (FACS) (human mesothelin [2]): 59.8 pM
EC50 of CD69 up-regulation on CD4 T cells (% CD4+CD69+), NCI-H596 target cells (FACS) (human mesothelin [2]): 77.4 pM
EC50 of CD69 up-regulation on CD8 T cells (% CD8+CD69+), AsPC-1 target cells (FACS) (human mesothelin [2]): 546 pM
EC50 of CD69 up-regulation on CD8 T cells (% CD8+CD69+), BxPC-3 target cells (FACS) (human mesothelin [2]): ~118 pM
EC50 of CD69 up-regulation on CD8 T cells (% CD8+CD69+), NCI-H596 target cells (FACS) (human mesothelin [2]): 146 pM
EC50 of CD69 up-regulation on CD4 T cells (% CD4+CD69+), AsPC-1 target cells, 72 h (FACS) (human mesothelin [3]): 131 pM
EC50 of CD69 up-regulation on CD4 T cells (% CD4+CD69+), BxPC-3 target cells, 72 h (FACS) (human mesothelin [3]): 7.52 pM
EC50 of CD69 up-regulation on CD4 T cells (% CD4+CD69+), NCI-H596 target cells, 72 h (FACS) (human mesothelin [3]): 35.2 pM
EC50 of CD69 up-regulation on CD8 T cells (% CD8+CD69+), AsPC-1 target cells, 72 h (FACS) (human mesothelin [3]): 93.6 pM
EC50 of CD69 up-regulation on CD8 T cells (% CD8+CD69+), BxPC-3 target cells, 72 h (FACS) (human mesothelin [3]): 30.7 pM
EC50 of CD69 up-regulation on CD8 T cells (% CD8+CD69+), NCI-H596 target cells, 72 h (FACS) (human mesothelin [3]): 47.6 pM
EC50 (human mesothelin [4]): 7760 pM
EC50 of CD69 up-regulation on CD4 T cells (% CD4+CD69+), AsPC-1 target cells, 48 h (FACS) (human mesothelin [5]): 174 pM
EC50 of CD69 up-regulation on CD4 T cells (% CD4+CD69+), BxPC-3 target cells, 48 h (FACS) (human mesothelin [5]): 77.4 pM
EC50 of CD69 up-regulation on CD4 T cells (% CD4+CD69+), NCI-H596 target cells, 48 h (FACS) (human mesothelin [5]): 41.2 pM
EC50 of CD69 up-regulation on CD8 T cells (% CD8+CD69+), AsPC-1 target cells, 48 h (FACS) (human mesothelin [5]): 137 pM
EC50 of CD69 up-regulation on CD8 T cells (% CD8+CD69+), BxPC-3 target cells, 48 h (FACS) (human mesothelin [5]): 97.7 pM
EC50 of CD69 up-regulation on CD8 T cells (% CD8+CD69+), NCI-H596 target cells, 48 h (FACS) (human mesothelin [5]): 78.3 pM
EC50 of T-cell mediated lysis of AsPC-1 cells, 48 h (LDH release) (human mesothelin [6]): 146 pM
EC50 of T-cell mediated lysis of BxPC-3 cells, 48 h (LDH release) (human mesothelin [6]): 57.7 pM
EC50 of T-cell mediated lysis of NCI-H596 cells, 48 h (LDH release) (human mesothelin [6]): 149 pM
EC50 (human mesothelin [7]): 1440 pM
EC50 of T-cell mediated killing of AsPC-1 cells, 24 h (LDH release, human PBMCs, E:T 10:1) (human mesothelin [8]): 308 pM
EC50 of T-cell mediated killing of AsPC-1 cells, 48 h (LDH release, human PBMCs, E:T 10:1) (human mesothelin [8]): 100 pM
EC50 of T-cell mediated killing of BxPC-3 cells, 24 h (LDH release, human PBMCs, E:T 10:1) (human mesothelin [8]): 55.2 pM
EC50 of T-cell mediated killing of BxPC-3 cells, 48 h (LDH release, human PBMCs, E:T 10:1) (human mesothelin [8]): 19.5 pM
EC50 of T-cell mediated killing of NCI-H596 cells, 24 h (LDH release, human PBMCs, E:T 10:1) (human mesothelin [8]): 100 pM
EC50 of T-cell mediated killing of NCI-H596 cells, 48 h (LDH release, human PBMCs, E:T 10:1) (human mesothelin [8]): 143 pM
binding result (human CD3): binds
EC50 of T-cell mediated lysis of AsPC-1 cells, 48 h (LDH release) (human mesothelin [9]): ~498 pM
EC50 of T-cell mediated lysis of BxPC-3 cells, 48 h (LDH release) (human mesothelin [9]): 258 pM
EC50 of T-cell mediated lysis of NCI-H596 cells, 48 h (LDH release) (human mesothelin [9]): 313 pM
